These results are taken from patent US20170129962A1 (Hoffmann-La Roche, published 2017).

One may read the koff as the rate constant with which the complex falls apart. A word on the kon: it is the rate constant with which the complex forms.

Experiment [1] deals with T1, human Ang-2-RBD-Fc (human, UniProt O15123 275-496, limits assumed).
T1 construct: domain: RBD; Analyte in solution; not shown: Fc part
T1 sequence (looked up): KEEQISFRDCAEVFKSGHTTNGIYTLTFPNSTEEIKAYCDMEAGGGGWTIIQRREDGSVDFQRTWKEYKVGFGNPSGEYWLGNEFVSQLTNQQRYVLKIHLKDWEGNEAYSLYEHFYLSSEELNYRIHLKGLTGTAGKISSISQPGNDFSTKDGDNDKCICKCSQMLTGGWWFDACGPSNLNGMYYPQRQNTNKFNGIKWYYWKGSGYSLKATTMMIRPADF
As to the kind of experiment: SPR (Biacore T200), bispecific antibody captured by anti-human F(ab')2, Ang2-RBD-Fc as analyte, 1:1 Langmuir, apparent KD. As for the experimental part: (§1) Binding of indicated antibodies to human Ang-2-RBD-Fc was investigated by surface plasmon resonance using a BIACORE® T200 instrument (GE Healthcare). Around 8000 (RU) of goat anti human F(ab′)₂ (10 μg/ml anti human F(ab)′₂; Order Code: 28958325; GE Healthcare Bio-Sciences AB, Sweden) were coupled on a Series S CMS chip (GE Healthcare BR-1005-30) at pH 5.0 by using an amine coupling kit supplied by the GE Healthcare. HBS-N (10 mM HEPES, 150 mM NaCl pH 7.4, GE Healthcare) was used as running buffer during the immobilization procedure. For the following kinetic characterization, sample and running buffer was PBS-T (10 mM phosphate buffered saline including 0.05% Tween20) at pH 7.4. The flow cell was set to 25° C.—and the sample block set to 12° C.—and primed with running buffer twice prior to kinetic characterization.
(§2) The bispecific antibody was captured by injecting a 5 nM solution for 25 sec at a flow of 5 μl/min. The association was measured by injection of human Ang2-RBD-Fc in various concentrations in solution for 120 sec at a flow of 30 μl/min starting with 100 nM in 1:3 serial dilutions. The dissociation phase was monitored for up to 180 sec and triggered by switching from the sample solution to running buffer. The surface was regenerated by 60 sec washing with a Glycine pH 2.1 solution at a flow rate of 30 μl/min. Bulk refractive index differences were corrected by subtracting the response obtained from a goat anti human F(ab′)₂ surface. Blank injections are also subtracted (=double referencing). For calculation of apparent KD the Langmuir 1:1 model was used.
A general note: Surface plasmon resonance follows binding to a sensor surface in real time, without labels.

In experiment [2] the target is T2, human VEGFA-121 (VEGF-A-121-His) (human, UniProt P15692-9 27-147).
T2 construct: Captured on the chip through an anti-His antibody; not shown: His tag
T2 sequence (looked up): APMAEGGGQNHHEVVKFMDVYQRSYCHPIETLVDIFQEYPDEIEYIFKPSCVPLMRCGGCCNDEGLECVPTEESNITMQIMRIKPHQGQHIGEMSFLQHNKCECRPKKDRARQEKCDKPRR
As to the kind of experiment: SPR (Biacore T200), VEGF-A-121-His captured by anti-His antibody, bispecific antibody as analyte, 1:1 Langmuir. As for the experimental part: Around 10000 (RU) of anti His antibody (1 μg/ml anti His antibody; Order Code: 28995056; GE Healthcare Bio-Sciences AB, Sweden) were coupled on a Series S CM5 chip (GE Healthcare BR-1005-30) at pH 5.0 by using an amine coupling kit supplied by the GE Healthcare. HBS-N (10 mM HEPES, 150 mM NaCl pH 7.4, GE Healthcare) was used as running buffer during the immobilization procedure. For the following kinetic characterization, sample and running buffer was PBS-T (10 mM phosphate buffered saline including 0.05% Tween20) at pH 7.4. The flow cell was set to 25° C.—and the sample block set to 12° C.—and primed with running buffer twice prior to kinetic characterization.
(§3) Binding of the multispecific antibodies to their respective target antigens, i.e. ANG2 and VEGF, was assessed by Biacore® as described in the general methods section.

Experiment [3] concerns the target T1, human Ang-2-RBD-Fc. As to the kind of experiment: SPR (Biacore T200), bispecific antibody captured by anti-human F(ab')2, Ang2-RBD-Fc as analyte, 1:1 Langmuir. The protocol:
as §1, §2, §3

B1: Ang2VEGF-0463 (bispecific antibody, human IgG1, kappa)
light 1: QPGLTQPPSVSVAPGQTARITCGGNNIGSKSVHWYQQKPGQAPVLVVYDDSDRPSGIPERFSGSNSGNTATLTISRVEAGDEADYYCQVWDSSSDHYVFGTGTKVTVLRTVAAPSVFIFPPSDKRLKSGTASVVCLLNNFYPREAKVQWKVDNALQSGNSQESVTEQDSKDSTYSLSSTLTLSKADYEKHKVYACEVTHQGLSSPVTKSFNRGEC
heavy 1: not shown
light 2: DIQMTQSPSSLSASVGDRVTITCSASQDISNYLNWYQQKPGKAPKVLIYFTSSLHSGVPSRFSGSGSGTDFTLTISSLQPEDFATYYCQQYSTVPWTFGQGTKVEIKSSASTKGPSVFPLAPSSKSTSGGTAALGCLVKDYFPEPVTVSWNSGALTSGVHTFPAVLQSSGLYSLSSVVTVPSSSLGTQTYICNVNHKPSNTKVDKKVEPKSC
heavy 2: not shown
notes: CrossMAb CH1-CL, knob-into-hole with S354C/Y349C; also called Ang2VEGF-0463-0002
With B1, the Kd with human Ang-2-RBD-Fc [1] was 3 nM; in experiment [2] it was 4 nM. For the same molecule, the koff in experiment [2] was found to be 7.44e-05 s⁻¹; with human Ang-2-RBD-Fc [3], 0.0281 s⁻¹. In addition, the kon in experiment [2] is 17600 M⁻¹ s⁻¹; in the experiment with human Ang-2-RBD-Fc [3], 9.54e+06 M⁻¹ s⁻¹.

B2: Ang2VEGF-0465 (bispecific antibody, human IgG1, kappa)
light 1: QPGLTQPPSVSVAPGQTARITCGGNNIGSKSVHWYQKKPGQAPVLVVYDDSDRPSGIPERFSGSNSGNTATLTISRVEAGDEADYYCQVWDSSSDHYVFGTGTKVTVLRTVAAPSVFIFPPSDKKLKSGTASVVCLLNNFYPREAKVQWKVDNALQSGNSQESVTEQDSKDSTYSLSSTLTLSKADYEKHKVYACEVTHQGLSSPVTKSFNRGEC
heavy 1: not shown
light 2: DIQMTQSPSSLSASVGDRVTITCSASQDISNYLNWYQKKPGKAPKVLIYFTSSLHSGVPSRFSGSGSGTDFTLTISSLQPEDFATYYCQQYSTVPWTFGQGTKVEIKSSASTKGPSVFPLAPSSKSTSGGTAALGCLVKDYFPEPVTVSWNSGALTSGVHTFPAVLQSSGLYSLSSVVTVPSSSLGTQTYICNVNHKPSNTKVDKKVEPKSC
heavy 2: not shown
notes: CrossMAb CH1-CL, knob-into-hole with S354C/Y349C; also called Ang2VEGF-0465-0002
Regarding B2, the Kd with human Ang-2-RBD-Fc [1] was 3 nM. Besides, in experiment [2], the Kd worked out at 5 nM, the koff is 7.96e-05 s⁻¹ and the kon was 16000 M⁻¹ s⁻¹. In the experiment with human Ang-2-RBD-Fc [3], this molecule registered a koff of 0.0325 s⁻¹ and a kon of 1.17e+07 M⁻¹ s⁻¹.

B3: Ang2VEGF-0475 (bispecific antibody, human IgG1, kappa)
light 1: QPGLTQPPSVSVAPGQTARITCGGNNIGSKSVHWYQQKPGQAPVLVVYDDSDRPSGIPERFSGSNSGNTATLTISRVEAGDEADYYCQVWDSSSDHYVFGTGTKVTVLRTVAAPSVFIFPPSDEELKSGTASVVCLLNNFYPREAKVQWKVDNALQSGNSQESVTEQDSKDSTYSLSSTLTLSKADYEKHKVYACEVTHQGLSSPVTKSFNRGEC
heavy 1: not shown
light 2: DIQMTQSPSSLSASVGDRVTITCSASQDISNYLNWYQQKPGKAPKVLIYFTSSLHSGVPSRFSGSGSGTDFTLTISSLQPEDFATYYCQQYSTVPWTFGQGTKVEIKSSASTKGPSVFPLAPSSKSTSGGTAALGCLVKDYFPEPVTVSWNSGALTSGVHTFPAVLQSSGLYSLSSVVTVPSSSLGTQTYICNVNHKPSNTKVDKKVEPKSC
heavy 2: not shown
notes: CrossMAb CH1-CL, knob-into-hole with S354C/Y349C
As for B3, in the experiment with human Ang-2-RBD-Fc [1], the Kd worked out at 4 nM. In experiment [2], the Kd amounted to 7 nM, the koff came out at 7.26e-05 s⁻¹ and the kon is 10500 M⁻¹ s⁻¹. In the experiment with human Ang-2-RBD-Fc [3], this molecule came in with a koff of 0.00505 s⁻¹ and a kon of 1.38e+06 M⁻¹ s⁻¹.

B4: Ang2VEGF-0474 (bispecific antibody, human IgG1, kappa)
light 1: QPGLTQPPSVSVAPGQTARITCGGNNIGSKSVHWYQQKPGQAPVLVVYDDSDRPSGIPERFSGSNSGNTATLTISRVEAGDEADYYCQVWDSSSDHYVFGTGTKVTVLRTVAAPSVFIFPPSDEKLKSGTASVVCLLNNFYPREAKVQWKVDNALQSGNSQESVTEQDSKDSTYSLSSTLTLSKADYEKHKVYACEVTHQGLSSPVTKSFNRGEC
heavy 1: not shown
light 2: DIQMTQSPSSLSASVGDRVTITCSASQDISNYLNWYQQKPGKAPKVLIYFTSSLHSGVPSRFSGSGSGTDFTLTISSLQPEDFATYYCQQYSTVPWTFGQGTKVEIKSSASTKGPSVFPLAPSSKSTSGGTAALGCLVKDYFPEPVTVSWNSGALTSGVHTFPAVLQSSGLYSLSSVVTVPSSSLGTQTYICNVNHKPSNTKVDKKVEPKSC
heavy 2: not shown
notes: as for B3
On to B4, for which the Kd in the experiment with human Ang-2-RBD-Fc [1] came to 5 nM. In addition, in experiment [2], the Kd worked out at 3 nM, the koff was found to be 5.41e-05 s⁻¹ and the association rate constant (kon) came out at 21300 M⁻¹ s⁻¹. Further, in the experiment with human Ang-2-RBD-Fc [3], the koff turned out to be 0.0097 s⁻¹ and the kon worked out at 2.04e+06 M⁻¹ s⁻¹.

B5: Ang2VEGF-0466 (bispecific antibody, human IgG1, kappa)
light 1: QPGLTQPPSVSVAPGQTARITCGGNNIGSKSVHWYQKKPGQAPVLVVYDDSDRPSGIPERFSGSNSGNTATLTISRVEAGDEADYYCQVWDSSSDHYVFGTGTKVTVLRTVAAPSVFIFPPSDKKLKSGTASVVCLLNNFYPREAKVQWKVDNALQSGNSQESVTEQDSKDSTYSLSSTLTLSKADYEKHKVYACEVTHQGLSSPVTKSFNRGEC
heavy 1: not shown
light 2: DIQMTQSPSSLSASVGDRVTITCSASQDISNYLNWYQKKPGKAPKVLIYFTSSLHSGVPSRFSGSGSGTDFTLTISSLQPEDFATYYCQQYSTVPWTFGQGTKVEIKSSASTKGPSVFPLAPSSKSTSGGTAALGCLVKDYFPEPVTVSWNSGALTSGVHTFPAVLQSSGLYSLSSVVTVPSSSLGTQTYICNVNHKPSNTKVDKKVEPKSC
heavy 2: not shown
notes: CrossMAb CH1-CL, knob-into-hole with S354C/Y349C; also called Ang2VEGF-0466-0002
Turning to B5, the Kd with human Ang-2-RBD-Fc [1] turned out to be 3 nM. In experiment [2], the Kd was 4 nM, the koff stood at 8.01e-05 s⁻¹ and the kon came to 18600 M⁻¹ s⁻¹. Moreover, in the experiment with human Ang-2-RBD-Fc [3], the koff was determined as 0.031 s⁻¹ and the kon came to 1.06e+07 M⁻¹ s⁻¹.

B6: Ang2VEGF-0476 (bispecific antibody, human IgG1, kappa)
light 1: QPGLTQPPSVSVAPGQTARITCGGNNIGSKSVHWYQQKPGQAPVLVVYDDSDRPSGIPERFSGSNSGNTATLTISRVEAGDEADYYCQVWDSSSDHYVFGTGTKVTVLRTVAAPSVFIFPPSDEELKSGTASVVCLLNNFYPREAKVQWKVDNALQSGNSQESVTEQDSKDSTYSLSSTLTLSKADYEKHKVYACEVTHQGLSSPVTKSFNRGEC
heavy 1: not shown
light 2: DIQMTQSPSSLSASVGDRVTITCSASQDISNYLNWYQQKPGKAPKVLIYFTSSLHSGVPSRFSGSGSGTDFTLTISSLQPEDFATYYCQQYSTVPWTFGQGTKVEIKSSASTKGPSVFPLAPSSKSTSGGTAALGCLVKDYFPEPVTVSWNSGALTSGVHTFPAVLQSSGLYSLSSVVTVPSSSLGTQTYICNVNHKPSNTKVDEKVEPKSC
heavy 2: not shown
notes: as for B3
With B6, the Kd in the experiment with human Ang-2-RBD-Fc [1] was found to be 9 nM. Moreover, in experiment [2], the Kd was 4 nM, the koff is 6.94e-05 s⁻¹ and the kon is 18500 M⁻¹ s⁻¹. In the experiment with human Ang-2-RBD-Fc [3], this molecule returned a koff of 0.0114 s⁻¹ and a kon of 1.32e+06 M⁻¹ s⁻¹.

B7: Ang2VEGF-0464 (bispecific antibody, human IgG1, kappa)
light 1: QPGLTQPPSVSVAPGQTARITCGGNNIGSKSVHWYQEKPGQAPVLVVYDDSDRPSGIPERFSGSNSGNTATLTISRVEAGDEADYYCQVWDSSSDHYVFGTGTKVTVLRTVAAPSVFIFPPSDKKLKSGTASVVCLLNNFYPREAKVQWKVDNALQSGNSQESVTEQDSKDSTYSLSSTLTLSKADYEKHKVYACEVTHQGLSSPVTKSFNRGEC
heavy 1: not shown
light 2: DIQMTQSPSSLSASVGDRVTITCSASQDISNYLNWYQKKPGKAPKVLIYFTSSLHSGVPSRFSGSGSGTDFTLTISSLQPEDFATYYCQQYSTVPWTFGQGTKVEIKSSASTKGPSVFPLAPSSKSTSGGTAALGCLVKDYFPEPVTVSWNSGALTSGVHTFPAVLQSSGLYSLSSVVTVPSSSLGTQTYICNVNHKPSNTKVDKKVEPKSC
heavy 2: not shown
notes: CrossMAb CH1-CL, knob-into-hole with S354C/Y349C; also called Ang2VEGF-0464-0002
For the molecule B7, the Kd with human Ang-2-RBD-Fc [1] stood at 2 nM; in experiment [2], 5 nM. Also, the koff in experiment [2] was determined as 7.54e-05 s⁻¹; with human Ang-2-RBD-Fc [3], 0.0172 s⁻¹. The figures for the kon (in experiment [2]; in the experiment with human Ang-2-RBD-Fc [3]) were 16600 M⁻¹ s⁻¹ and 8.81e+06 M⁻¹ s⁻¹, respectively.
